The target of assay [1] is T1, Rhizomucor miehei lipase (RmL) mature protein (Rhizomucor miehei, UniProt P19515 95-363).
T1 construct: Expressed in Aspergillus oryzae ToC1512 from the gene with its prepropeptide; The mature part is the same in all RMLPP variants; also called RmL WT; mature protein of the lipase
T1 sequence: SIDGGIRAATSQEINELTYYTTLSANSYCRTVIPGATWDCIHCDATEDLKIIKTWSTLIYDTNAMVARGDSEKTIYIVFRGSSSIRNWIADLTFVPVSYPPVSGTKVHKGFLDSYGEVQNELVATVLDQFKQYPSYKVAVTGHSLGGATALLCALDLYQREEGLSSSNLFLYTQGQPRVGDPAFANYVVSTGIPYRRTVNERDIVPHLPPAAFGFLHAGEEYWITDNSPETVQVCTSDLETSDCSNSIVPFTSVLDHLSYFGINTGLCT
Kind of assay: native PAGE, column HMW band (taken by the filing as lipase associated with propeptide). As to the method: (§1) The native PAGE was casted by first pouring the Resolving gel (4.0 mL 30% Acrylamide (Acrylamide-Bis-acrylamide solution); 2.5 mL 1.5M Tris (pH8.8); 0.1 mL 10% Ammonium per sulphate (APS); 0.004 mL TEMED; 3.3 mL water), followed by overlaying with butanol-water and allowing to polymerize for 30-45 minutes. The butanol-water was washed off and then the stacking gel (1.7 mL 30% Acrylamide (Acrylamide-Bis-acrylamide solution); 1.25 mL 1.5M Tris (pH6.8); 0.1 mL 10% Ammonium per sulphate (APS); 0.01 mL TEMED; 6.8 mL water), was poured over the polymerized resolving gel, immediately followed by insertion of the comb. This was allowed to polymerize for approx. 15 minutes. The protein sample (culture supernatant) was mixed with loading dye (5× composition (2 mL): 0.62 mL 1M Tris pH6.8; 0.1 mL 1% Bromophenol blue; 1.0 mL Glycerol; 0.28 mL Water) and loaded in to the wells of the native PAGE. The gel was run in SDS-free electrophoresis buffer (3.0 g Tris base; 14.4 g Glycine; water up to 1 L) at constant current of 25 mA.

The target of assay [2] is T1, Rhizomucor miehei lipase (RmL) mature …. The assay can be described thus: native PAGE of culture supernatant; HMW band, taken by the filing as lipase associated with propeptide. As to the method:
as §1

B1: propeptide of RmL (wild type) (peptide)
peptide: VPIKRQSNSTVDSLPPLIPSRTSAPSSSPSTTDPEAPAMSRNGPLPSDVETKYGMALNATSYPDSVVQAM
notes: also called RmL WT propeptide
For B1, in assay [1], the binding result was “binds”.

B2: propeptide of RMLPP0006 (N-63Q N-13Q) (peptide)
peptide: VPIKRQSQSTVDSLPPLIPSRTSAPSSSPSTTDPEAPAMSRNGPLPSDVETKYGMALQATSYPDSVVQAM
As to B2, in assay [2], the binding result is “no binding”.

For the origin of these results see US20170137795A1 (NOVOZYMES A S, published 2017).
